Data: PMC9482650, “Quantitative fragmentomics allow affinity mapping of interactomes” (Nature Communications, 2022)

T1: HTRA3, P83110
T1 sequence (P83110 354-453, limits assumed, looked up): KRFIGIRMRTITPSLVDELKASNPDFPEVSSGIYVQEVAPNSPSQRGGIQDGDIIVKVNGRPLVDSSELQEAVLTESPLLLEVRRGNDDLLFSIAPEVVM

T2: DFNB31_2, Q9P202
T2 sequence (Q9P202 274-371, limits assumed, looked up): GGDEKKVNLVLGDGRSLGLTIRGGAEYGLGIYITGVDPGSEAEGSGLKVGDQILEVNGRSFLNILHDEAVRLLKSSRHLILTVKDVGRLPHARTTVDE

T3: PDZD2_2, O15018
T3 sequence (O15018 329-429, limits assumed, looked up): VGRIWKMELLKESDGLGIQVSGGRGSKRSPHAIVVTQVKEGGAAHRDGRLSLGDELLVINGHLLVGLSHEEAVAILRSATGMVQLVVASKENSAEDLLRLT

T4: GRIP1_7, Q9Y3R0
T4 sequence (Q9Y3R0 999-1096, limits assumed, looked up): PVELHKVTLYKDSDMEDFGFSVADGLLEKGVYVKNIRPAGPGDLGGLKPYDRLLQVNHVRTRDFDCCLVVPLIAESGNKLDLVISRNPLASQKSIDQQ

T5: ARHGAP21, Q5T5U3
T5 sequence (Q5T5U3 45-169, limits assumed, looked up): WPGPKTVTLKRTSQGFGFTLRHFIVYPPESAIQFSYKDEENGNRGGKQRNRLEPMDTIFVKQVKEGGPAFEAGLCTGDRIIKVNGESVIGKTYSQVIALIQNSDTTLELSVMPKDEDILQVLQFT

T6: TX1BP3, O14907
T6 sequence (O14907 10-122, limits assumed, looked up): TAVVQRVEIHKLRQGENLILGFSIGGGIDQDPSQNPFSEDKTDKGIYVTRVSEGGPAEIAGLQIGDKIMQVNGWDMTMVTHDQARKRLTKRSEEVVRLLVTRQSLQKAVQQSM

T7: LIN7A, O14910
T7 sequence (O14910 103-200, limits assumed, looked up): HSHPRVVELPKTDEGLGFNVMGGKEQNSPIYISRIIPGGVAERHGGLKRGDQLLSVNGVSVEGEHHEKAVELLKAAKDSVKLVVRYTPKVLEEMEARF

T8: SYNJ2BP, P57105
T8 sequence (P57105 8-110, limits assumed, looked up): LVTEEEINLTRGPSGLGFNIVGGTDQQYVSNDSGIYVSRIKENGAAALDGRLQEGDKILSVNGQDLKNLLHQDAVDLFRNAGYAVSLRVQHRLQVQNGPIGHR


Tests used:
Assay in all cases: holdup assay
Set-up in all cases: key: below the threshold = too weak to quantify, mostly under pKd 3.1 to 4
Conditions in all cases: plain residues with an end cap or a label only (N-terminal biotin on a linker: ado-ado)
PICK1, Q9NRD5 = molecular target: PICK1, Q9NRD5
Sequence of PICK1, Q9NRD5 (Q9NRD5 17-115): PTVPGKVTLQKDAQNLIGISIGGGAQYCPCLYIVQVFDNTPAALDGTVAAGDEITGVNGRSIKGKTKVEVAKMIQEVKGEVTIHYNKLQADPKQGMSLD

MAGI2_5, Q86UL8 = molecular target: MAGI2_5, Q86UL8
Sequence of MAGI2_5, Q86UL8 (Q86UL8 915-1017): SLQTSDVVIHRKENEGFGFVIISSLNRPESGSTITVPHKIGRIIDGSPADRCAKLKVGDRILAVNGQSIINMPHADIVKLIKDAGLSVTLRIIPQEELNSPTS

GRID2IP_2, A4D2P6 = molecular target: GRID2IP_2, A4D2P6
Sequence of GRID2IP_2, A4D2P6 (A4D2P6 272-370): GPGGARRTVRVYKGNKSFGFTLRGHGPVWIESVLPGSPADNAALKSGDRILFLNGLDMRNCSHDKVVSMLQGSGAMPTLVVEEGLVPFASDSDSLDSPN

Inadl_10, Q8NI35 = molecular target: Inadl_10, Q8NI35
Sequence of Inadl_10, Q8NI35 (Q8NI35 1673-1763): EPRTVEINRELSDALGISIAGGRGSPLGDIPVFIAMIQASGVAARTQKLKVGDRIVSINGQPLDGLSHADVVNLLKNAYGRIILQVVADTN

HTRA1, Q92743 = molecular target: HTRA1, Q92743
Sequence of HTRA1, Q92743 (Q92743 360-477): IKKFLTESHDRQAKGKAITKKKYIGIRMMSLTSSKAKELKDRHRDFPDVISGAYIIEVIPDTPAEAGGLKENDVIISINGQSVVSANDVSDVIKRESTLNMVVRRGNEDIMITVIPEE

GRIP2_3, Q9C0E4 = molecular target: GRIP2_3, Q9C0E4
Sequence of GRIP2_3, Q9C0E4 (Q9C0E4 238-339): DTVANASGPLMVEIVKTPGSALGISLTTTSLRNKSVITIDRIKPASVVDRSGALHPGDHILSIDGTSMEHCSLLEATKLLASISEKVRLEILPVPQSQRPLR

HTRA3, P83110 = molecular target: T1, HTRA3, P83110
Inadl_8, Q8NI35 = molecular target: Inadl_8, Q8NI35
Sequence of Inadl_8, Q8NI35 (Q8NI35 1425-1530): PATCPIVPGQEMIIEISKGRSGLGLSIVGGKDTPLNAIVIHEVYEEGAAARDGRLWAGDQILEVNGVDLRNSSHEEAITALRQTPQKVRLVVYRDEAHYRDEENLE

SCRIB_2, Q14160 = molecular target: SCRIB_2, Q14160
Sequence of SCRIB_2, Q14160 (Q14160 857-960): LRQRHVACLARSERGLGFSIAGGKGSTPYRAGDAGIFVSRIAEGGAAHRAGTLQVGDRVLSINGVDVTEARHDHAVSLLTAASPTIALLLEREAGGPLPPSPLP

TJP1_2, Q07157 = molecular target: TJP1_2, Q07157
Sequence of TJP1_2, Q07157 (Q07157 181-274): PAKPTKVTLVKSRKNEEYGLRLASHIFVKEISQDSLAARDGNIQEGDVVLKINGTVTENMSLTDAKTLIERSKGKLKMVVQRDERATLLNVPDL

LNX1_2, Q8TBB1 = molecular target: LNX1_2, Q8TBB1
Sequence of LNX1_2, Q8TBB1 (Q8TBB1 371-470): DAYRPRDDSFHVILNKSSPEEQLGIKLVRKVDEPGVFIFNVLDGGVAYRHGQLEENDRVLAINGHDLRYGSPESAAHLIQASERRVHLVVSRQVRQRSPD

FRMPD4, Q14CM0 = molecular target: FRMPD4, Q14CM0
Sequence of FRMPD4, Q14CM0 (Q14CM0 67-160): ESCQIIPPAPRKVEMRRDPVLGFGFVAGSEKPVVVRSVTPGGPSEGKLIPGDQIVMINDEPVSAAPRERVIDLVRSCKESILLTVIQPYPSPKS

MAGI3_2, Q5TCQ9 = molecular target: MAGI3_2, Q5TCQ9
Sequence of MAGI3_2, Q5TCQ9 (Q5TCQ9 398-503): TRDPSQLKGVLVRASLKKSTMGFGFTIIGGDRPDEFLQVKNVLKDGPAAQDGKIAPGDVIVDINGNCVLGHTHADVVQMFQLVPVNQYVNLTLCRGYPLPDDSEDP

IL16_3, Q14005 = molecular target: IL16_3, Q14005
Sequence of IL16_3, Q14005 (Q14005 1107-1207): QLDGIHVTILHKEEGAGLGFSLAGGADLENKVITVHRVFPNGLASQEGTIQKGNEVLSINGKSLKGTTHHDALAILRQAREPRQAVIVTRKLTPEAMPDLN

Inadl_2, Q8NI35 = molecular target: Inadl_2, Q8NI35
Sequence of Inadl_2, Q8NI35 (Q8NI35 238-335): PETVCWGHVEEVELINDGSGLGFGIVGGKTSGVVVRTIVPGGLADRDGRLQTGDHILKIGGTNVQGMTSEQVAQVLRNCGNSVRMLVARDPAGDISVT

DFNB31_2, Q9P202 = molecular target: T2, DFNB31_2, Q9P202
PDZD2_2, O15018 = molecular target: T3, PDZD2_2, O15018
Inadl_5, Q8NI35 = molecular target: Inadl_5, Q8NI35
Sequence of Inadl_5, Q8NI35 (Q8NI35 673-780): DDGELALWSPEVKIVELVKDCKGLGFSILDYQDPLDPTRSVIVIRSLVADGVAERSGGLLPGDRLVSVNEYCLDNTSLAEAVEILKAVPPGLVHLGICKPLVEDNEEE

GRIP1_7, Q9Y3R0 = molecular target: T4, GRIP1_7, Q9Y3R0
DLG5_1, Q8TDM6 = molecular target: DLG5_1, Q8TDM6
Sequence of DLG5_1, Q8TDM6 (Q8TDM6 617-713): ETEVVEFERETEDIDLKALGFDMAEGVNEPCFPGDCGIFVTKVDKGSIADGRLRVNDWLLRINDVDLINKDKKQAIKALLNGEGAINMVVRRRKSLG

ARHGAP21, Q5T5U3 = molecular target: T5, ARHGAP21, Q5T5U3
DLG4_3, P78352 = molecular target: DLG4_3, P78352
Sequence of DLG4_3, P78352 (P78352 306-403): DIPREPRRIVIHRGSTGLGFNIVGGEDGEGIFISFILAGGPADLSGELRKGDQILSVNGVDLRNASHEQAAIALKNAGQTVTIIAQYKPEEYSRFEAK

MAGI2_3, Q86UL8 = molecular target: MAGI2_3, Q86UL8
Sequence of MAGI2_3, Q86UL8 (Q86UL8 600-682): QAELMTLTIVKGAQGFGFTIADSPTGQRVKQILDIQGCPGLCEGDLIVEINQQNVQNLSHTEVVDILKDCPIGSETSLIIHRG

DLG2_2, Q15700 = molecular target: DLG2_2, Q15700
Sequence of DLG2_2, Q15700 (Q15700 189-283): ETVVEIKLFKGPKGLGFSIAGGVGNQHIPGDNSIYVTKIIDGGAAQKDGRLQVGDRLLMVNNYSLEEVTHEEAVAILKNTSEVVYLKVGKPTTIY

TX1BP3, O14907 = molecular target: T6, TX1BP3, O14907
GORASP1, Q9BQQ3 = molecular target: GORASP1, Q9BQQ3
Sequence of GORASP1, Q9BQQ3 (Q9BQQ3 1-208): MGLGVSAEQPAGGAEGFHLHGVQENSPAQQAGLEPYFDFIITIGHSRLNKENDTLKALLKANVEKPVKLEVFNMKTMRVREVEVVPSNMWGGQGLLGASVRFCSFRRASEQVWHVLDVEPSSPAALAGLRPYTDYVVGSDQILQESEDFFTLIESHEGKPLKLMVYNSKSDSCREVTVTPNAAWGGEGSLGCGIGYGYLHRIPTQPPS

LIN7A, O14910 = molecular target: T7, LIN7A, O14910
FRMPD2_1, Q68DX3 = molecular target: FRMPD2_1, Q68DX3
Sequence of FRMPD2_1, Q68DX3 (Q68DX3 770-861): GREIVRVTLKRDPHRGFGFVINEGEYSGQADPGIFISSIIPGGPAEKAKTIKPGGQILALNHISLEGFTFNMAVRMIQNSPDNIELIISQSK

SYNJ2BP, P57105 = molecular target: T8, SYNJ2BP, P57105

| Binder | pKd (PICK1, Q9NRD5) | pKd (MAGI2_5, Q86UL8) | pKd (GRID2IP_2, A4D2P6) | pKd (Inadl_10, Q8NI35) | pKd (HTRA1, Q92743) | pKd (GRIP2_3, Q9C0E4) | pKd (HTRA3, P83110) | pKd (Inadl_8, Q8NI35) | pKd (SCRIB_2, Q14160) | pKd (TJP1_2, Q07157) | pKd (LNX1_2, Q8TBB1) | pKd (FRMPD4, Q14CM0) | pKd (MAGI3_2, Q5TCQ9) | pKd (IL16_3, Q14005) | pKd (Inadl_2, Q8NI35) | pKd (DFNB31_2, Q9P202) | pKd (PDZD2_2, O15018) | pKd (Inadl_5, Q8NI35) | pKd (GRIP1_7, Q9Y3R0) | pKd (DLG5_1, Q8TDM6) | also measured |
| --- | --- | --- | --- | --- | --- | --- | --- | --- | --- | --- | --- | --- | --- | --- | --- | --- | --- | --- | --- | --- | --- |
| RELVMRVTTV [MARCHF4, Q9P2E8] | below the threshold | 4.05 | 4.06 | below the threshold | 4.96 | below the threshold | below the threshold | 5.5 | 4.28 | below the threshold | 4.58 | below the threshold | 5.07 | below the threshold | below the threshold | below the threshold | 4.46 | below the threshold | below the threshold | below the threshold | pKd (ARHGAP21, Q5T5U3): below the threshold; pKd (DLG4_3, P78352): 4.87; pKd (MAGI2_3, Q86UL8): 4.56; pKd (DLG2_2, Q15700): 5.2; pKd (TX1BP3, O14907): 4.75; pKd (GORASP1, Q9BQQ3): 4.36; pKd (LIN7A, O14910): 3.7; pKd (FRMPD2_1, Q68DX3): 3.48; pKd (SYNJ2BP, P57105): 4.82 |
| PAPGQHTTQI [STK16, O75716] | 4.07 | below the threshold | 3.98 | below the threshold | below the threshold | below the threshold | below the threshold | below the threshold | below the threshold | below the threshold | below the threshold | below the threshold | below the threshold | below the threshold | below the threshold | below the threshold | 3.91 | below the threshold | below the threshold | below the threshold | pKd (ARHGAP21, Q5T5U3): below the threshold; pKd (DLG4_3, P78352): below the threshold; pKd (MAGI2_3, Q86UL8): below the threshold; pKd (DLG2_2, Q15700): 3.79; pKd (TX1BP3, O14907): 4.12; pKd (GORASP1, Q9BQQ3): below the threshold; pKd (LIN7A, O14910): below the threshold; pKd (FRMPD2_1, Q68DX3): below the threshold; pKd (SYNJ2BP, P57105): 3.51 |
| QFTLRHWLKV [SLC6A3, Q01959] | 3.69 | below the threshold | below the threshold | below the threshold | 4.45 | below the threshold | below the threshold | below the threshold | below the threshold | 4.19 | 3.84 | below the threshold | below the threshold | below the threshold | below the threshold | below the threshold | below the threshold | 3.62 | below the threshold | below the threshold | pKd (ARHGAP21, Q5T5U3): 4.09; pKd (DLG4_3, P78352): below the threshold; pKd (MAGI2_3, Q86UL8): below the threshold; pKd (DLG2_2, Q15700): below the threshold; pKd (TX1BP3, O14907): below the threshold; pKd (GORASP1, Q9BQQ3): 4.13; pKd (LIN7A, O14910): below the threshold; pKd (FRMPD2_1, Q68DX3): 3.71; pKd (SYNJ2BP, P57105): below the threshold |
| PASAKGPLGV [CLDN19, Q8N6F1] | below the threshold | below the threshold | below the threshold | below the threshold | below the threshold | below the threshold | below the threshold | below the threshold | below the threshold | below the threshold | below the threshold | below the threshold | below the threshold | below the threshold | below the threshold | below the threshold | below the threshold | below the threshold | below the threshold | below the threshold | pKd (ARHGAP21, Q5T5U3): 3.98; pKd (DLG4_3, P78352): below the threshold; pKd (MAGI2_3, Q86UL8): below the threshold; pKd (DLG2_2, Q15700): below the threshold; pKd (TX1BP3, O14907): below the threshold; pKd (GORASP1, Q9BQQ3): below the threshold; pKd (LIN7A, O14910): below the threshold; pKd (FRMPD2_1, Q68DX3): below the threshold; pKd (SYNJ2BP, P57105): below the threshold |
| DSATVRTYSC [PPFIA1, Q13136] | 4.15 | below the threshold | 3.49 | below the threshold | 4.27 | below the threshold | 4.65 | below the threshold | below the threshold | 3.48 | 4.83 | 3.8 | below the threshold | below the threshold | below the threshold | below the threshold | 3.7 | below the threshold | below the threshold | below the threshold | pKd (ARHGAP21, Q5T5U3): below the threshold; pKd (DLG4_3, P78352): below the threshold; pKd (MAGI2_3, Q86UL8): below the threshold; pKd (DLG2_2, Q15700): below the threshold; pKd (TX1BP3, O14907): below the threshold; pKd (GORASP1, Q9BQQ3): below the threshold; pKd (LIN7A, O14910): below the threshold; pKd (FRMPD2_1, Q68DX3): 4.49; pKd (SYNJ2BP, P57105): below the threshold |
